In patent US11040083B2, “Polypeptides comprising vinculin binding sites for the treatment of proliferation and/or adhesion related diseases” (PARIS SCIENCES ET LETTRES—QUARTIER LATIN, priority 2015, dated 2021):

B1: A524: IpaA 524-633, containing only IpaA VBS1 and VBS2 (protein, listed as Shigella flexneri)
chain: KSKDITKSTTEHRINNKLKVTDANIRNYVTETNADTIDKNHAIYEKAKEVSSALSKVLSKIDDTSAELLTDDISDLKNNNDITAENNNIYKAAKDVTTSLSKVLKNINKD
modifications: A524 / IpaA (524-633)
notes: IpaA 524-633, containing only IpaA VBS1 and VBS2
B2: A483: amino acids 483 to 633 of SEQ ID NO: 1 (IpaA), containing IpaA VBS1, VBS2 and VBS3 (protein, listed as Shigella flexneri)
chain: GDTYLTRETIFEASKKVTNSLSNLISLIGTKSGTQERELQEKSKDITKSTTEHRINNKLKVTDANIRNYVTETNADTIDKNHAIYEKAKEVSSALSKVLSKIDDTSAELLTDDISDLKNNNDITAENNNIYKAAKDVTTSLSKVLKNINKD
modifications: A483 / IpaA (483-633)

Legend:
talin H1-H4 = talin H1-H4 (Homo sapiens, UniProt Q9Y490); assay: Native-PAGE gel shift; assay type: binding
talin H1-H4, sequence (Q9Y490 482-636): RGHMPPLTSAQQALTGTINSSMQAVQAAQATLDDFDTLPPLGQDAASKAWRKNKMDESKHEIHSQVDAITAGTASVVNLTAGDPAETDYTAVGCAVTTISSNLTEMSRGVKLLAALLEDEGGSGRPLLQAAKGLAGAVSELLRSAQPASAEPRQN
Method: Talin H1-H4 and IpaA peptides/proteins were incubated in binding buffer for 1 hour at 4° C. After incubation, the protein/peptides were mixed in a 2× Native loading buffer (62.5 mM Tris pH 6.8, Glycerol 25%) and separated by Tris-Glycine Native-PAGE electrophoresis. Gels were stained using standard colloidal Coomassie stain.
Talin H1-H4 and IpaA peptides/proteins at different molar ratios were incubated in binding buffer (25 mM Tris pH 7.4, 100 mM NaCl and 1 mM β-Mercaptoethanol) for 1 hour at 4° C. After incubation, the protein/peptides were mixed in a 2× Native loading buffer (62.5 mM Tris pH 6.8, Glycerol 25%) and separated by Tris-Glycine Native-PAGE electrophoresis. The Native PAGE electrophoresis gels were stained using standard colloidal Coomassie stain.

[1] = test system: C2.7 mice myoblasts cells; assay: Immunostaining of focal adhesions in transfected cells; assay type: cell-based; conditions: cells plated for 16 hours
Method: C2.7 mice myoblasts cells were seeded at 2.5×10^4 cells in 5 mm rounded cell culture coverslips. Cells were transfected with 3 μg of pcDNA3.1 NT GFP-A483 plasmid, with 6 μL JetPEI transfection reagent (Polyplus) overnight following manufacturer's recommendations. Control and GFP-A483 transfected cells were fixed (3.7% PFA-PBS), permeabilized (0.1% Triton X-100, Sigma-Aldrich) and incubated with a 1/200 monoclonal m11.5 anti-vinculin antibody (ref. V4505, Sigma-Aldrich). Coverslips were washed and incubated with a 1/200 anti-mouse secondary antibody coupled to Alexa 546 (Jackson Research) and 1/200 Phalloidin A633 (Invitrogen), washed and mounted on slides using Dako mounting medium (Invitrogen). Samples were observed using a confocal microscopy with rotary disc (Roper Scientific®). Peripheral and ventral focal adhesion sizes (vinculin) were separated in three different categories (Small/None, Medium and Large) and the size of their focal adherences scored from three independent experiments. The focal adhesion size's distributions between the control and GFP-A483 transfected cells were compared using a Pearson's Chi-squared test.

C2.7 myoblastic cells = assay: Plating on fibronectin-coated PDMS membranes of different stiffness; assay type: cell-based; conditions: substrate stiffness 1.5 kPa and 15 kPa
Method: As previously observed, A483 induced the formation of large adhesion structures in C2.7 cells (FIG. 20A). While A483 transfectants induced a spectacular 5.6-fold increase in the number of adherent cells after 60 seconds of incubation, this increase was reduced to 1.3-fold when adhesion was tested after 30 min. These findings were quantified by measuring the resistance to shear stress of cells under flow as a function of the incubation time with the substrate in microfluidic chambers (FIG. 20B). Thus, through its direct binding via IpaA VBS3/TBS or indirect unveiling of binding sites on vinculin “supra-activated”, A483 may “by-pass” mechanosensing normally associated with the initial steps of cell adhesions' formation. While we cannot rule out the possibility that A483 induces an original ex-nihilo adhesion structure, our current results rather argue that it allows the bypassing of actomyosin-dependent mechanosensing steps that would lead to vinculin supra-activation at high actomyosin contraction forces. To further test this, we plated the C2.7 myoblastic cells on various fibronectin-coated PDMS membranes showing different stiffness. As expected, at low substrate stiffness (1.5 kPa), control cells remained spread and isolated, whereas at high substrate stiffness (15 kPa), cells differentiated into myotubes (FIG. 20C).

[2] = test system: C2.7 mice myoblasts cells; assay: Cell adhesion kinetics on fibronectin-coated surfaces; assay type: cell-based
Method: C2.7 mice myoblasts cells were seeded at 2.5×10^5 cells in a 10 cm cell culture petri dish (TPP). Cells were transfected with 15 μg of pcDNA3.1 NT GFP-A483 plasmid, with 45 μL JetPEI transfection reagent (Polyplus) overnight following manufacturer's recommendations. Control and transfected cells were detached and washed in a large volume of DMEM/Hepes (ref. 21063-045, Life Technologies) with 0.2% BSA and 50 ng/mL LPA (ref. L7260, Sigma-Aldrich) without FCS. Some 15,000 control/IpaA cells per well were seeded (DMEM/BSA/LPA, no FCS) in 24-well plates added with 5 mm rounded coverslips coated with 25 μg/mL fibronectin and blocked with 2% BSA-PBS 1×. Plates containing cells were centrifuged at 1000 g for 2 minutes, incubated at 37° C. and fixed (3.7% PFA-PBS) at different time points. Coverslips were stained with an anti-vinculin antibody+Phalloidin as described before (Immunostaining) or with a solution containing 1/200 DAPI (1 mg/mL) for number-of-cells adhesion tests. All coverslips were washed and mounted on slides using Dako mounting medium (Invitrogen) and observed using a confocal microscopy with rotary discs (Roper Scientific®).
To confirm this latter result at the scale of a whole cell population, we performed assays where cells, resuspended by trypsinization, were allowed to adhere for define amounts of time on Fn-coated substrates before washing. Then the number of cells that remained attached to the substrate was measured.

MEF cells = assay: TIRF microscopy of focal adhesion markers after ROCK inhibitor Y-27632; assay type: cell-based; conditions: Paxillin, Vinculin, VASP; after Rho-kinase inhibitor Y-27632; preliminary
Description: FIG. 21 is a set of images showing that IpaA prevents the disassembly of focal adhesions induced by the relaxation of the actomyosin contraction. MEF cells were transfected with focal adhesion proteins Paxillin-Cherry (PAX), Vinculin-Cherry (VIN) or VASP-Cherry (VASP). CTRL: single transfection; A483: cells were co-transfected with GFP-A483. The intensity of focal adhesion proteins (visualized as white dots) is shown at the indicated time points in seconds after the addition of the ROCK inhibitor Y-27632 by TIRF microscopy. A483 prevents the destabilization of FA markers induced by the ROCK inhibitor observed in control cells.
In preliminary experiments, we have analyzed the role of actomyosin contraction on the recruitment of FA markers linked to the supra-activation of vinculin, by treating cells with the Rho-kinase inhibitor Y-27632. The disappearance of markers from FAs was analyzed following in real-time using total internal reflection (TIRF) microscopy. […] Strikingly, VASP, a marker of mature FAs, was also stabilized by A483, while previous studies had shown that this FA marker was not stabilized by active vinculin, deficient for head-tail intra-molecular interaction.

melanocytes = assay: Time lapse cell migration; assay type: cell-based; conditions: 6 movies per sample, preliminary

Molecule | formation of a complex with talin H1-H4 (talin H1-H4) | focal adhesions (FA) in transfected cells [1] | myotube formation (C2.7 myoblastic cells) | increase in the number of adherent cells ([2]; adhesion tested after 30 min) [fold] | increase in the number of adherent cells ([2]; after 60 seconds of incubation) [fold] | concentration at which the complex with talin H1-H4 / migration shift could be detected (talin H1-H4) [µM] | stabilization of FA markers (MEF cells) | effect on cell migration / motility (melanocytes)
B1 | no migration shift could be detected | not observed | – | – | – | – | – | –
B2 | – | – | formed myotubes not only at high, but also at low substrate stiffness | 1.3 | 5.6 | ≤ 5 | stabilization of all FA markers studied | strong effect on cell migration
